Residue numbers refer to the chain shown, from its start. In names and notes the source's numbering stands.
B1: mAb2_SL50K (antibody, V domains shown)
VH: EVQLVESGGGLVQPGGSLRLSCAASGFTISDYWIHWVRQAPGKGLEWVAGITPAGGYTYYADSVKGRFTISADTSKNTAYLQMNSLRAEDTAVYYCARFVFFLPYAMDYWGQGTLVTVSS
VL: DIQMTQSPSSLSASVGDRVTITCRASQDVSTAVAWYQQKPGKAPKLLIYKASFLYSGVPSRFSGSGSGTDFTLTISSLQPEDFATYYCQQSYTTPPTFGQGTKVEIK
notes: as the heavy chain variable region of m1 (PDB 2FJF); constant regions of an IgG1 isotype, already in the expression vector; as the light chain variable region of m1 (PDB 2FJF), with the stated change; light chain constant region from the expression vector; IgG1; also called S50K in the light chain; source: CHO K1, transiently transfected, purified (protein A)
B2: mAb2_SL50K_SH21R_SH85R (antibody, V domains shown)
VH: B1 VH with S21R, S85R
VL: B1 VL
notes: as the heavy chain variable region of m1 (PDB 2FJF), with the stated changes; constant regions of an IgG1 isotype, already in the expression vector; as the light chain variable region of m1 (PDB 2FJF), with the stated change; light chain constant region from the expression vector; IgG1; also called Variant 7; source: CHO K1, transiently transfected, purified (protein A)
B3: mAb2_SL50D (antibody, V domains shown)
VH: B1 VH
VL: B1 VL with K50D
notes: as the heavy chain variable region of m1 (PDB 2FJF); constant regions of an IgG1 isotype, already in the expression vector; as the light chain variable region of m1 (PDB 2FJF), with the stated change; light chain constant region from the expression vector; IgG1; source: CHO K1, transiently transfected, purified (protein A)
B4: mAb2_FH101P (antibody, V domains shown)
VH: B1 VH with F101P
VL: B1 VL with K50S
notes: as the heavy chain variable region of m1 (PDB 2FJF), with the stated change; constant regions of an IgG1 isotype, already in the expression vector; as the light chain variable region of m1 (PDB 2FJF); light chain constant region from the expression vector; IgG1; source: CHO K1, transiently transfected, purified (protein A)
B5: mAb2_SL52R_FH101P (antibody, V domains shown)
VH: B1 VH with F101P
VL: B1 VL with K50S, S52R
notes: as the heavy chain variable region of m1 (PDB 2FJF), with the stated change; constant regions of an IgG1 isotype, already in the expression vector; as the light chain variable region of m1 (PDB 2FJF), with the stated change; light chain constant region from the expression vector; IgG1; also called mAb2 FH101P SL52R; source: CHO K1, transiently transfected, purified (protein A)
B6: mAb2_VH100R (antibody, V domains shown)
VH: B1 VH with V100R
VL: B1 VL with K50S
notes: as for B4
B7: mAb2_SL50K_SH21R_SH85R_FH101P (antibody, V domains shown)
VH: B1 VH with S21R, S85R, F101P
VL: B1 VL
notes: as the heavy chain variable region of m1 (PDB 2FJF), with the stated changes; constant regions of an IgG1 isotype, already in the expression vector; as the light chain variable region of m1 (PDB 2FJF), with the stated change; light chain constant region from the expression vector; IgG1; also called mAb2 FH101P SL50K SH21R SH85R; source: CHO K1, transiently transfected, purified (protein A)
B8: mAb2_SL52R_SH21R_SH85R_FH101P (antibody, V domains shown)
VH: B1 VH with S21R, S85R, F101P
VL: B1 VL with K50S, S52R
notes: as the heavy chain variable region of m1 (PDB 2FJF), with the stated changes; constant regions of an IgG1 isotype, already in the expression vector; as the light chain variable region of m1 (PDB 2FJF), with the stated change; light chain constant region from the expression vector; IgG1; also called mAb2 FH101P SL52R SH21R SH85R; source: CHO K1, transiently transfected, purified (protein A)
B9: mAb2_SL50K_FH101P (antibody, V domains shown)
VH: B1 VH with F101P
VL: B1 VL
notes: as the heavy chain variable region of m1 (PDB 2FJF), with the stated change; constant regions of an IgG1 isotype, already in the expression vector; as the light chain variable region of m1 (PDB 2FJF), with the stated change; light chain constant region from the expression vector; IgG1; also called mAb2 FH101P SL50K; variant 8; source: CHO K1, transiently transfected, purified (protein A)

target: T1, recombinant human Vascular Endothelial Growth Factor a (Homo sapiens, UniProt P15692-4, fluorescently labeled with Alexa-647); test: MST; Alexa-647-labelled rhVEGFa constant at 1 nM in solution, mAb2 WT or variants in varying concentrations; 295 K; 25 mM sodium citrate pH 6.0, 125 mM NaCl, 0.05% Tween 20; triplicates; NanoTemper Monolith NT.115; details: both partners purified
T1 construct: human VEGFa, UniProt ID P15692, aa 27-191 as printed; the isoform is my reading of the limits 27-191; also called rhVEGFa; recombinant human VEGFa; source: recombinant
T1 sequence (P15692 other isoform, or with tags, fused parts or gaps): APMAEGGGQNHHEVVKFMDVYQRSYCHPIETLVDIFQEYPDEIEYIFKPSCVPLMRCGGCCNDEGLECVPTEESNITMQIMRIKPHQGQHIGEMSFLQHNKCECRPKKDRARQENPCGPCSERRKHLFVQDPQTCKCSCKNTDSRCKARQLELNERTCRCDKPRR

Kd [nM]	binding result	Binder
8.3 ± 1.4		B1
57.1 ± 6.2		B2
4.4 ± 1.3		B3
	no binding	B4
	no binding	B5
	no binding	B6
	no binding	B7
	no binding	B8
	no binding	B9

From article PMC5397608 (Journal of Molecular Biology, 2017)
